From US10407503B2, “Fully human antibodies and fragments recognizing human c-Met” (THE REGENTS OF THE UNIVERSITY OF CALIFORNIA, priority 2012, dated 2019)
Entries after “also recorded” stand apart in the source; their conditions may differ.

B1: F1 ScFv antibody (phage-displayed) (scFv)
scFv: QVQLVQSGAEVKKPGASVKVSCKASGYTFTDYYMHWVRQAPGEGLEWMGWMNPNSGGTNYAQKFQGRVTMTRDTSISTAYMELSRLRSDDTAVYYCARSHYWDSWSPGTLVTVSSGGGGGSGGGGSGGGGSSALTQPASVSGSPGQSITISCTGTSGDVGGYNYVSWYQQHPGKAPKLMIYDVSNRPSGVSNRFSGSKSGNTASLTISGLQAEDEADYYCTSYAGSRNLVFGGGTKLTVLG
notes: The fusion to the phage coat protein is not described
B2: C2 cys-diabody (other)
chain: QVQLQESGGGLVQPGGSLRLSCAASGFTFSSYAMSWVRQAPGKGLEWVSAISGSGGSTYYADSVKGRFTISRDNSKNTLYLQMNSLRAEDTAVYYCASQHVGEQSRYFDYWGQGTLVTVSSGGGGGSDIVMTQSPSSLSASIGDRVTITCRASHSISSYVNWYQKKPGKAPNLLIYAASYLPRGVPSRFSGSGLGTDFTLTISNLQPEDFATYYCQESYSTPYSFGQGTKVDIKRAAAEQKLISEEDLNGAAHHHHHHC
notes: Expressed in E. coli and purified through the His tag; also called C2 diabody
B3: C2 cys-diabody: human anti-c-Met cys-diabody comprising SEQ ID NO:18 (protein)
chain: B2 chain
modifications: C2 cys-diabody sequence
B4: H5 cys-diabody (other)
chain: QVQLQESGGGLVQPGGSLRLSCAASGFTFSNYAMSWVRQAPGKGLEWVSAISGSGGSTYYADSVKGRFTISRDNSKNTLYLQMNSLRAEDTAVYYCAKDRFRAAAYWGQGTLVTVSSGGGGGSQSVLTQPPSVSAAPGQKVTISCTGSSSNIGAGYDVHWYQQLPGTAPKLLIYGNSNRPSGVPDRFSGSKSGTSASLAISGLQSEDEADYYCAAWDDILNGEIFGGGTKVTVLGAAAEQKLISEEDLNGAAHHHHHHC
notes: Expressed in E. coli and purified through the His tag; also called H5 diabody
B5: H5 cys-diabody: human anti-c-Met cys-diabody comprising SEQ ID NO:24 (protein)
chain: B4 chain
modifications: H5 cys-diabody sequence

Tests used:
[1] = target: T1, c-MET on the surface of Hcc827 or Hcc827-GR6 cells (human, UniProt P08581 25-1390); experiment: phage flow cytometry on Hcc827 cells, bound phage detected with FITC anti-M13 antibody
T1 construct: whole, on cells; The cells express the receptor endogenously, and MET is amplified in Hcc827-GR6; also called cell surface MET
Procedure: For phage antibodies, flow cytometry was used to confirm their binding to c-MET expressing cells. Bacteria culture containing phage was concentrated 30 times into PBS according to published method (Antibody Engineering Methods and Protocols, Benny K. C. Lo). $2 \sim 5 \times 10^5$ c-MET positive Hcc827 or Hcc827-GR6 cells (Engelman et. al, Science, 2007) were incubated with 100 ul concentrated phage and 30 ul 4% milk-PBS on ice for 1 hour. Cells were then washed using flow buffer (PBS, 1% FBS, 2 mM EDTA), and the binding phage antibodies were detected by FITC conjugated anti-M13 monoclonal antibody (Santa Cruz Biotechnology, Cat# sc-53005 Fitc).

[2] = target: T1, c-MET on the surface of Hcc827 or …; experiment: flow cytometry on Hcc827-GR6 cells, one-site total binding fit
Procedure: (§1) The affinities of the cys-diabodies were evaluated by flow cytometry. Serial diluted cys-diabodies were incubated with Hcc827-GR6 cells at 4 degrees for 2 hours. The cys-diabodies were detected with 1/100 mouse anti-c-Myc antibody (Sigma, Cat# M4439) and stained with 1/100 PE or FITC conjugated goat anti mouse IgG polyclonal antibody (Jackson ImmunoResearch) in flow buffer.
(§2) The affinity of these 3 cys-diabodies were evaluated by flow cytometry. The concentrations of the purified proteins were determined by their A280, measured with Nanodrop 2000 (Thermal Scientific), and their calculated extinction coefficient (ProtParam tool, expasy.org). The binding curve was fitted with one-site total binding model by GraphPad Prism.

[3] = target: T1, c-MET on the surface of Hcc827 or …; experiment: flow cytometry binding curve on cells (the sheet does not name them; paragraph 217: Hcc827 GR6 cell line)
Procedure: as §1, §2

[4] = target: T2, mouse MET-hIgG Fc fusion protein (Sino Biological Inc.) (mouse; human, UniProt P16056 25-931, limits assumed); experiment: capture ELISA: cys-diabody coated on the plate, mouse MET-hIgG Fc applied, detected with alkaline phosphatase anti-human IgG
T2 construct: Bought protein; also called mouse MET protein; MET-hFc
Procedure: 1 µg of purified anti-MET cys-diabodies in 100 µL PBS were used to coat each well at 4 degree overnight. Anti-EpCAM cys-diabody or 2% milk-PBS were used for negative controls. The overnight coated plate was then washed with PBS and blocked with 2% milk-PBS at 37 degree for 2 hours. The plate was then washed with PBS before adding 0.1 µg human or mouse MET-hIgG Fc fusion protein (purchased from Sino Biological Inc.) in 100 µL, 2% milk-PBS to each well. The plate was incubated at room temperature for 1.5 hours, and then washed with PBS-Tween and PBS. The captured human or mouse MET-hIgG Fc were detected with alkaline phosphatase conjugated goat anti-human IgG.
C2, H2 and H5 cys-diabodies were used to coat 96-well ELISA plate to capture human or mouse MET-hIgG Fc fusion protein. The human IgG Fc on the fusion protein was detected with alkaline phosphatase conjugated goat anti-human IgG. The results in FIG. 4 show H2 cys-diabody can bind to both human and mouse MET protein, while C2 and H5 cys-diabodies show minimal cross reactivity to the mouse MET. Anti-EpCAM H9 cys-diabody or 2% milk-PBS were used as negative controls.

[5] = target: T3, human MET protein (Homo sapiens, UniProt P08581); experiment: Anti-MET ELISA, human MET-hIgG Fc captured by coated cys-diabodies; assay type: binding; conditions: coated cys-diabody captures human MET-hFc
T3 construct: purchased Sino Biological Inc
Procedure: (§3) Three rounds of selections on human MET protein were performed which were successfully reformatted and purified 3 cys-diabodies. C2, H2 and H5 cys-diabodies were tested for cross-reactivity to mouse MET protein. Different cys-diabodies were coated to 96-well plate (milk or anti-EpCAM cys-diabody was used as negative control). Either mouse or human MET protein was applied to the coated cys-diabodies. Then the MET-hFc proteins were detected by anti-human Fc antibody.
(§4) 1 μg of purified anti-MET cys-diabodies in […], PBS were used to coat each well at 4 degree overnight. Anti-EpCAM cys-diabody or 2% milk-PBS were used for negative controls. The overnight coated plate was then washed with PBS and blocked with 2% milk-PBS at 37 degree for 2 hours. […] The captured human or mouse MET-hIgG Fc were detected with alkaline phosphatase conjugated goat anti-human IgG.
(§5) C2, H2 and H5 cys-diabodies were used to coat 96-well ELISA plate to capture human or mouse MET-hIgG Fc fusion protein. The human IgG Fc on the fusion protein was detected with alkaline phosphatase conjugated goat anti-human IgG. […]
(§6) Three rounds of selections on human MET protein were performed, and three cys-diabodies were reformatted and purified (the C2, H2 and H5 cys-diabodies). […] Then the MET-hFc proteins were detected by anti-human Fc antibody.

[6] = target: T4, mouse MET protein (Mus musculus, UniProt P16056); experiment: Anti-MET ELISA, mouse MET-hIgG Fc captured by coated cys-diabodies (cross reactivity); assay type: binding; conditions: coated cys-diabody captures mouse MET-hFc
T4 construct: purchased Sino Biological Inc
Procedure: as §3, §4, §5, §6

[7] = tested on: Hcc827 cells; experiment: MTS cell growth assay, parental Hcc827 cells; assay type: cell-based; conditions: 3 days, with 1 micromolar gefitinib
Procedure: (§7) These diabodies also show therapeutic effects on resistant cells with MET amplification. […] The diabodies were also applied to the resistant cell line GR6 with or without 1 μM gefitinib.
(§8) Cell growth and inhibition were evaluated by MTS assay. The MTS assay was based on the ability of live cells to convert 3-(4,5-dimethylthiazol-2-yl)-5-(3-carboxymethoxyphenyl)-2-(4-sulfophenyl)-2H-tetrazolium (MTS) to formazan. The quantity of formazan product was measured by 500 nm absorbance, which is proportional to the number of living cells in culture. The assay was performed with the CellTiter96 AQueous Assay Kit from Promega (Cat# G5421), according to the recommended protocol. 2×10^4 cells were seeded in each well of the 96-well plates and treated with different combination of antibodies and drugs for 3 days before the MTS assay. Each combination of cell line and drug and antibody treatment was set up in at least 4 replicate wells. And the results were normalized to the cells treated with media only.
(§9) Different cell lines were treated with C2, H2 or H5 cys-diabodies at different concentrations with or without 1 micromolar of gefitinib for 3 days, and then the cell growth was evaluated with MTS assay. […] All three cys-diabodies show no effects on the parental Hcc827 cells without gefitinib.
These diabodies also show therapeutic effects on resistant cells with MET amplification. […]

[8] = tested on: Hcc827-GR6 cells; experiment: MTS cell growth assay, gefitinib resistant Hcc827-GR6 cells; assay type: cell-based; conditions: 3 days, with or without 1 μM gefitinib, MET amplified
Procedure: as §7, §8, §9
These diabodies also show therapeutic effects on resistant cells with MET amplification. The parental cell line, Hcc827, was treated with the diabodies for 3 days, and the diabodies show no effects on the growth of the parental line at all.

T4 sequence (P16056 with tags, fused parts or gaps limits assumed): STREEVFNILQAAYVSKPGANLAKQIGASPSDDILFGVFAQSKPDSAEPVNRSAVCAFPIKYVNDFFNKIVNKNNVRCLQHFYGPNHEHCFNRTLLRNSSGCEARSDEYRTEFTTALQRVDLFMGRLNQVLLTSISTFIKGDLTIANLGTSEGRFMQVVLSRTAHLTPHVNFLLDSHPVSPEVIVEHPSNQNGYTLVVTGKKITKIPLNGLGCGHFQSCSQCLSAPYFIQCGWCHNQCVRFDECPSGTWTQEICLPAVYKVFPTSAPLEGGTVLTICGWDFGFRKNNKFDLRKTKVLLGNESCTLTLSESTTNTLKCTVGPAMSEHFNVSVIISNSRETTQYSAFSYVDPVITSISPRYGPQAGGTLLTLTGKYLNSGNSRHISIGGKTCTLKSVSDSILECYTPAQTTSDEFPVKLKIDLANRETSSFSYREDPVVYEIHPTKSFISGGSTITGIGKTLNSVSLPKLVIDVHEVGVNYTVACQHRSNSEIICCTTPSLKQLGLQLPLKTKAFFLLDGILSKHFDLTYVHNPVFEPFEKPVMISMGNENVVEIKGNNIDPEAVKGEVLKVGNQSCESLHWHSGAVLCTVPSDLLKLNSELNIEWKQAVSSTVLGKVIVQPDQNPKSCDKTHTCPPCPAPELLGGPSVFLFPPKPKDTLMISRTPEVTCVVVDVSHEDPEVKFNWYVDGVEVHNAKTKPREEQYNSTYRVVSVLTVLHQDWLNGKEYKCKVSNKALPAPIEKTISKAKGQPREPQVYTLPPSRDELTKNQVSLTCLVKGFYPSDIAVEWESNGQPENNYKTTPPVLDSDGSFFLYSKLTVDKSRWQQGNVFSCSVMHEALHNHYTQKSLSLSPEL
T4 sequence (P16056 25-306 limits assumed): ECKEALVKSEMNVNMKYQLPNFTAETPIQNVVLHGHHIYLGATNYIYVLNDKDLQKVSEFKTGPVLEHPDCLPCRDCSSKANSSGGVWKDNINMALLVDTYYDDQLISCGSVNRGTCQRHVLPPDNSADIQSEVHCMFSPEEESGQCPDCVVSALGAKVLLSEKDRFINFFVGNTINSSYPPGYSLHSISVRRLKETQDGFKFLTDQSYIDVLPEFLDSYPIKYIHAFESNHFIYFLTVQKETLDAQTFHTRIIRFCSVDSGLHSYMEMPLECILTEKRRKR
T1 sequence (P08581 25-1390): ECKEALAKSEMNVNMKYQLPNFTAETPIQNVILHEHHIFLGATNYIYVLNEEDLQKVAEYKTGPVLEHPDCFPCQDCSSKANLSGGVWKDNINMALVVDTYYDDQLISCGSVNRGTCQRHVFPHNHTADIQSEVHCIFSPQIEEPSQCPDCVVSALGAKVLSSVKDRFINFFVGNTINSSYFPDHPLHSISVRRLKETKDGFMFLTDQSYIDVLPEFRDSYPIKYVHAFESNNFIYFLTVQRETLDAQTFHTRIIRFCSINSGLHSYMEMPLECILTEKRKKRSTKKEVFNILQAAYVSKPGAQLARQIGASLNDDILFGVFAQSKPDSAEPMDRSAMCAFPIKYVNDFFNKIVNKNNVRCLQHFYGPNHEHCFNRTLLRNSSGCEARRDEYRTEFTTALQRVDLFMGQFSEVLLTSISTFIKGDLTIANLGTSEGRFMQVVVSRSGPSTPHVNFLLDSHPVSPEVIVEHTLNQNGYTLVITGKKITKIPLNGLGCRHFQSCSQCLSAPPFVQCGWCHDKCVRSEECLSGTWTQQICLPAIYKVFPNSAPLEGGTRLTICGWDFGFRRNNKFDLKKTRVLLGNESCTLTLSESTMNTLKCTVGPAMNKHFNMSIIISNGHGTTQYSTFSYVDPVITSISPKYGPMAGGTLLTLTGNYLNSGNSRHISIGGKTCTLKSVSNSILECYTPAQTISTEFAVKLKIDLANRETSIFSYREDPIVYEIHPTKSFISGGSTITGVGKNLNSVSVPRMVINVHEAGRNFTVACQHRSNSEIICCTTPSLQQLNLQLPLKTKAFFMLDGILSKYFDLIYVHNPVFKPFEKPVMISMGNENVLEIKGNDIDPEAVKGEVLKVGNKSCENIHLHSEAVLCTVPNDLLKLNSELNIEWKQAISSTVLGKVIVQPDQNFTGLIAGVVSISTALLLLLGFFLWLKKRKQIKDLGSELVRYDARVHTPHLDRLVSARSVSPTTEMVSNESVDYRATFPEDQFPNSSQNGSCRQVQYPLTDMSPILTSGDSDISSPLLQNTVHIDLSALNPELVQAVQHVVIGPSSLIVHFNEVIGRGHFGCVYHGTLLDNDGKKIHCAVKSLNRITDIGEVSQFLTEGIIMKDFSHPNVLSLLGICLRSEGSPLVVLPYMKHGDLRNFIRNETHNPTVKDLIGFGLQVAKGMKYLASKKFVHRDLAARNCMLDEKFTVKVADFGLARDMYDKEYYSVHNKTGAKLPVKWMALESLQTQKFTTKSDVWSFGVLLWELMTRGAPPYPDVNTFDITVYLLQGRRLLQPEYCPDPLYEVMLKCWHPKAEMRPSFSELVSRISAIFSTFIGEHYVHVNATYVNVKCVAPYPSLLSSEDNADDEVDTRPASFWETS
T3 sequence (P08581 with tags, fused parts or gaps limits assumed): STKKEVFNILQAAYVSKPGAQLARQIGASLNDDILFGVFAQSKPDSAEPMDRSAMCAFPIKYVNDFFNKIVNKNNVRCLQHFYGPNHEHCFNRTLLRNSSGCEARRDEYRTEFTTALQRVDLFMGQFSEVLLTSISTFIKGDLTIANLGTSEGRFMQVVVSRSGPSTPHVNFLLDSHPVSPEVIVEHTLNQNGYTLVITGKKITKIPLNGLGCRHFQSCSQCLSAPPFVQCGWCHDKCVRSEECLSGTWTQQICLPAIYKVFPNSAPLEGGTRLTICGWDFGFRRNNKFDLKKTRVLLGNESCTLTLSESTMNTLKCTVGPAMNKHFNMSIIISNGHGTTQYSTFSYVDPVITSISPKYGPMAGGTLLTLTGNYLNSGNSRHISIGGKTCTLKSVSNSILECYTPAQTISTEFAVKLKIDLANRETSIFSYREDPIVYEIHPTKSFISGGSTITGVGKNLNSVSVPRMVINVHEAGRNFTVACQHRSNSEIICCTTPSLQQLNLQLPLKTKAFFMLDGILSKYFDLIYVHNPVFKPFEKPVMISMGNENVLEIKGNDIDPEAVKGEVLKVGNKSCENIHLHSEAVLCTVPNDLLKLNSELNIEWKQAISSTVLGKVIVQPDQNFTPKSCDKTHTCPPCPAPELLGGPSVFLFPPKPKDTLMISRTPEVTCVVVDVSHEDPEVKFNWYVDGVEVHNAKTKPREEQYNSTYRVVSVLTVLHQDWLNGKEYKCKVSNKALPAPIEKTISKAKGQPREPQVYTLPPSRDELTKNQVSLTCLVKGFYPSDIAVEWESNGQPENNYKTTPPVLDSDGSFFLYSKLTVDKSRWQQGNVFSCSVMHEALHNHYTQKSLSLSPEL
T3 sequence (P08581 25-307 limits assumed): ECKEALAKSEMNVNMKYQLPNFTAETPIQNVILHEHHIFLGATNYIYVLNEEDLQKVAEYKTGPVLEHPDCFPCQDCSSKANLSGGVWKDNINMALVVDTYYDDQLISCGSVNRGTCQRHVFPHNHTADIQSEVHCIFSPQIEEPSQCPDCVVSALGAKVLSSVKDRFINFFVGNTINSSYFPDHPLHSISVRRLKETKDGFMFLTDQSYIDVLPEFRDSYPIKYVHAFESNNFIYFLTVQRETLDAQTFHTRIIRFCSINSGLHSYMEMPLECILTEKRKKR
T2 sequence (P16056 25-931 limits assumed): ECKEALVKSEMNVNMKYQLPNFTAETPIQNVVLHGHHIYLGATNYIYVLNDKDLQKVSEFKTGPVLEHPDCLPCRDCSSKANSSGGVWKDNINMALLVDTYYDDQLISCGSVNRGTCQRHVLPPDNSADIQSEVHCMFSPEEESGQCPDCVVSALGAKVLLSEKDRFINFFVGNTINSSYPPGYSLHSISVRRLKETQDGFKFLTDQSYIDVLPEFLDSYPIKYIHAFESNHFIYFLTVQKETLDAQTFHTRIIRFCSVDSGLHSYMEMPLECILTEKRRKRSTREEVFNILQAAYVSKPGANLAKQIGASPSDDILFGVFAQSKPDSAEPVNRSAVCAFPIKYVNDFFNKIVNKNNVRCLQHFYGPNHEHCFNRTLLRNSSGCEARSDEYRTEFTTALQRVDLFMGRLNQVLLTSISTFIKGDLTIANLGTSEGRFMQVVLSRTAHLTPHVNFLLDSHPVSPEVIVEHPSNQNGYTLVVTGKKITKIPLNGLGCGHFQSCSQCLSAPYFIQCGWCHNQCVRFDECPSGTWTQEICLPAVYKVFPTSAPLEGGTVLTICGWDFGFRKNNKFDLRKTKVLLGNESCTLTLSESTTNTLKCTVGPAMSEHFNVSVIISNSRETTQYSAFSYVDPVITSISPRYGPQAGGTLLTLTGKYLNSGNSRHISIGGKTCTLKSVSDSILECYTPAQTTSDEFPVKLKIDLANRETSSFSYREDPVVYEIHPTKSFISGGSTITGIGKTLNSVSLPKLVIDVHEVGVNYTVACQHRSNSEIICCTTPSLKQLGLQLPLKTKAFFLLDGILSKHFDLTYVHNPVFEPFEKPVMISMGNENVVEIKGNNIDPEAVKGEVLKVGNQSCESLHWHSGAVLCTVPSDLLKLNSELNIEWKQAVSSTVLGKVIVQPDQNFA

| Molecule | Kd [2] | Kd [3] | binding result [4] | binding to human MET protein [5] | cross reactivity to mouse MET protein [6] | also measured |
| --- | --- | --- | --- | --- | --- | --- |
| B1 | – | – | – | – | – | binding result [1]: binds |
| B2 | 2.4 nM | 2 nM | no binding | – | – | – |
| B3 | – | – | – | bind to only human MET | bind to only human MET; also recorded: minimal cross reactivity to the mouse MET | effect on growth of sensitive Hcc827 cells with gefitinib [7]: protects the sensitive Hcc827 cells from gefitinib inhibition; inhibition of growth of resistant Hcc827-GR6 cells ([8]; listed as C2 diabody): some inhibition at high concentrations; also recorded: inhibition only at high concentrations |
| B4 | 4.6 nM | 4.7 nM | no binding | – | – | – |
| B5 | – | – | – | bind to only human MET | bind to only human MET; also recorded: minimal cross reactivity to the mouse MET | inhibition of growth of resistant Hcc827-GR6 cells [8]: inhibition of the resistant cells at higher concentration; inhibition of growth of resistant Hcc827-GR6 cells ([8]; listed as H5 diabody): some inhibition at high concentrations; also recorded: inhibition only at high concentrations |
